In this assay the target is AVR-Pii effector domain (residues 20 to 70), purified (Magnaporthe oryzae). Put plainly: ITC. Background: ITC needs no label: the signal is the heat of the interaction.

Where only a bound is given, the exact number is not on record here.

B1: OsExo70F2^Δ83 (residues 84 to 689) (domain or fragment)
chain: ISAAAFDAAEQLIQVWDGTPEALVFEATEDEVAEYLSAVDVAIEHLARGSGGGAGGAGSSSSSTAGRAGVAVQLAMARLEEELRHLMVRHAVPLDPTGLFFSLRRLSLGSMDDLDTSSEFDAATPHSIDVAPETARGGPLVNPFEDQVFDPVRPEAVDDLRAIADRMARAGYSRELADAYCGIRRDLLDEYLSALGVERLSIDEVQRIEWKHLNDKMKKWVQAVKTVVRVLLAGERRLCDQVLSVSDELREECFIESTKGCIMQILSFGDAVAVCPRSPEKLSRILDMYEALAEVIPEMKDLCLGSSGDGVISDVQANLDRLGDAIRGTLFEFGKVLQLESSRRAMTAGEIHPMTRYVMNYLRLLVVYSDTLDALLDDNADDQIDLARAEDQDQEHLESMTPLGKRLLKLISYLEANLEEKSKLYEDSALECIFSMNNLLYIVQKVRDSELGKILGDHWVKRRNGKIRQYSKSYLRISWMKVLSFLKDDGHGSGSGSSSGSGSGHSSSRMSIKEKFKNFNLAFEEIYRNQTTWKVPDPQLREELKISISENVIPAYRAFLGRYGSQVDGGRNSGKYIKYTPEDLESQLSDLFEGAPGPANHSRRRT
In turn, B1 showed a Kd of under 1 nM.

Usually Kd stands for a measure of binding affinity in units of concentration.

The values are drawn from publication doi:10.1101/2022.06.18.496527 (2022).
